Reference: publication PMC7076219

Biological target: ligands on KG1a cells (human (endogenous in KG1a))
Assay: flow cytometry on cells; KG1a cells stained with 10 ug/ml E-selectin protein in HBSS with 5% FBS and 2 mM CaCl2, 4 °C, 20 min; detected by Strep-tag II mAb and PE anti-mouse IgG1

B1: E-S6 (monomeric full-length extracellular mouse E-selectin) (domain or fragment)
chain: WYYNASSELMTYDEASAYCQRDYTHLVAIQNKEEINYLNSNLKHSPSYYWIGIRKVNNVWIWVGTGKPLTEEAQNWAPGEPNNKQRNEDCVEIYIQRTKDSGMWNDERCNKKKLALCYTASCTNASCSGHGECIETINSYTCKCHPGFLGPNCEQAVTCKPQEHPDYGSLNCSHPFGPFSYNSSCSFGCKRGYLPSSMETTVRCTSSGEWSAPAPACHVVECEALTHPAHGIRKCSSNPGSYPWNTTCTFDCVEGYRRVGAQNLQCTSSGIWDNETPSCKAVTCDAIPQPQNGFVSCSHSTAGELAFKSSCNFTCEQSFTLQGPAQVECSAQGQWTPQIPVCKAVQCEALSAPQQGNMKCLPSASGPFQNGSSCEFSCEEGFELKGSRRLQCGPRGEWDSKKPTCSAVKCDDVPRPQNGVMECAHATTGEFTYKSSCAFQCNEGFSLHGSAQLECTSQGKWTQEVPSCQVVQCPSLDVPGKMNMSCSGTAVFGTVCEFTCPDDWTLNGSAVLTCGATGRWSGMPPTCEAPVSPTRP
Q: Which percent of the live KG1a population bound does the source give for B1 here?
A: 86%
